Measurements taken from patent US8889408B2, “Factor taking part in transcription control” (Sony Corporation, priority 2002, dated 2014).

How the values were obtained:
HDAC = assay: CAT reporter analysis with HDART in the presence of HDAC inhibitors; assay type: cell-based; details: pcDNA3-HDART 1 μg
Procedure: In this example, however, a given amount of pcDNA3-HDART expression vector (1 μg) (“HDART+” in FIGS. 10) and 100 nM of TSA or […] of sodium butyrate was added to along with a ligand (ATRA or dexamethasone).

retinoic acid receptor = assay: RAR reporter CAT analysis in HepG2 cells; assay type: cell-based
Procedure: Since it is shown in the above example that HDART is able to interact with Skip, the functional role of HDART on the transcription route ascribed to a nuclear receptor was analyzed. First, the effect of HDART on the transcription regulation by retinoic acid receptor was analyzed. For this purpose, the CAT analysis was made using a RAR (retinoid acid receptor) reporter plasmid incorporating a thymidine kinase minimum promoter (pTREpal-tata) and CAT gene therein downstream of a retinoid response element.
More particularly, pcDNA3-HDART, capable of steadily expressing HDART, and, at the same time, RAR reporter plasmid, were transfected into HepG2 cells by use of Effectene kit (QIAGEN™). It is to be noted that the pcDNA3-HDART expression vector was introduced in different amounts of 0, 0.5 and 1.0 μg, and the amount of DNA in the respective transfections was equalized at 1 μg by adding the appropriate amount of a vacant vector of pcDNA. After the transfection, growth was made in the presence (10^−8 M) or absence of ATRA and the CAT activity was measured. The results of the measurement (FIG. 6) are indicated in terms of values corrected on the basis of the CAT activity obtained after introduction of 1.0 μg of a vacant vector in the absence of ATRA. In addition, the average of the results of three experiments and a standard deviation in terms of an error bar are also shown.
(§1) Next, the influence of the overexpression of N4TPR on the transcription from RAR or a glucocorticoid responsive promoter was checked. It will be noted that this test was made in the same manner as in the reporter analysis set out in Example 4, but using GFP-N4TPR expression vector (0, 0.3 and 0.5 μg).

MM-1-19-P cells = assay: ATRA-induced differentiation of MM-1-19-P rhabdomyosarcoma cells; assay type: cell-based, human
Source text: It is known that ATRA (all-trans retinoic acid) is an important inducer for tumor cell differentiation (20-22). The human rhabdomyosarcoma cell line MM-1-19-P is constituted mainly of small polygonal cells, which when provided with retinoic acid, ultimately differentiate into myotubular cytomegalic cells. In order to clarify the physiological role of HDART in the reaction ascribed to nuclear hormone receptors, the influence of the expression with HDART on the differentiation of MM-1-19-P caused by ATRA was analyzed.
MM-1-19-P cells were plated in a […] Petri dish, followed by co-transfection of the cells with 0.4 μg of pGFP vector and 2 μg of pcDNA3 (vacant vector) or pcDMA3-HDART (HDART expression vector). 24 hours after the transfection, the medium was changed with an ATRA-containing (2 μM) or ATRA-free fresh one. […] All experiments were repeated four times, and the number of cells assessed as positive for GFP was counted. It will be noted that in FIG. 12, the standard microphotographs of green fluorescence of GFP are shown in panels of FIGS. 12A, 12B, 12C and 12D, and the phase differential microphotographs are shown in panels of FIGS. 12E and 12F, respectively. In the figure, 12A indicates ATRA non-treated, vacant vector-introduced cells, 12B indicates ATRA treated, vacant vector-introduced cells, 12C indicates ATRA-non-treated, HDART expression vector-introduced cells, 12D indicates ATRA-treated, HDART expression vector-introduced cells, 12E indicates cells under the same conditions as in 12C above, and 12F indicates cells under the same conditions as in 12D above. In addition, the black arrow in the panel of FIG. 12F indicates undifferentiated GFP positive cells, and white arrow indicates differentiated cells.

[1] = tested on: glucocorticoid receptor (GR); assay: GR reporter CAT analysis in GR positive Hela cells; assay type: cell-based
Procedure: Furthermore, the action of HDART on the transcription regulation by glucocorticoid receptor (GR) was analyzed by use of GR reporter plasmid in GR positive Hela cells. The transcription activity of a glucocorticoid response promoter was carried out in the same manner as in the experiment for the retinoic acid receptor except for the use of Hela cells and 10^−8 M of dexamethasone. The results of the measurement are shown in the same manner as shown above.
as §1

Skip [2] = molecular target: T1, Skip (Homo sapiens, UniProt Q13573); assay: Immunoprecipitation: N4TPR inhibition of endogenous HDART-Skip interaction in 293 cells; assay type: binding; design: expressed in transfected cells; host or cells: 293 cells; details: GFP-N4TPR expressed versus GFP alone
T1 sequence (Q13573 1-536): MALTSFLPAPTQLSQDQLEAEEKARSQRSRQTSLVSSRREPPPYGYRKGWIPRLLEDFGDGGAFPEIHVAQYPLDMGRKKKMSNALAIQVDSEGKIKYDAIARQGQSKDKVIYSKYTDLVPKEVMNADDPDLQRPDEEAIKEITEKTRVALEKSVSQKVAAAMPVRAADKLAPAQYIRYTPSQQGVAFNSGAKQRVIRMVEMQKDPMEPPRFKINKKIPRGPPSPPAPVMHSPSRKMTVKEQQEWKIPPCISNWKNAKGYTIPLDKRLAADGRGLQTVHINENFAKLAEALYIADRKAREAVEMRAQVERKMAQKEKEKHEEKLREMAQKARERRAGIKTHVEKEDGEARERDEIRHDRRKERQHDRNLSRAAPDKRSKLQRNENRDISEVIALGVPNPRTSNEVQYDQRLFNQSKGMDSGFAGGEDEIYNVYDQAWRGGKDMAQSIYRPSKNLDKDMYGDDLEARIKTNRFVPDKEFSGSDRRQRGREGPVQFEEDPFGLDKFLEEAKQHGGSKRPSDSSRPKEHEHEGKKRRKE
Source text: RAR and TR inhibit the genetic activity in the absence of a ligand in vivo (Baniahmad, A., Kohne, A. C., and Renkawitz, R. (1992) Embo J 11(3), 1015-23) and in vitro (Fondell, J. D., Roy, A. L., and Roeder, R. G. (1993) Genes Dev 7(7B), 1400-10). From this, this is called active repression. Skip interacts with NHR independently of ligand (MacDonald, P. N., Baudino, T. A., Toumaru, H., Dowd, D. R., and Zhang, C. (2001) Steroids 66 (3-5), 171-6). […] In order to clarify these possibilities, a dominant negative line of HDART is overexpressed to check the influence on the transcription ascribed to RAR. As shown in Example 2, the four TRPs (N4TPR) at the N terminus of HDART are in the Skip binding region, so that it is hypothesized that the expression of this region inhibits the interaction between the endogenous HDART and Skip, it is inhibiting the natural function of HDART and functioning as a dominant negative. In this sense, the N4TPR was used as a candidate for dominant negative in this example.
Flag-Skip and N4TPR tagged with GFP or GFP were transfected into 293 cells. […] The expression of Flag-Skip was detected using an anti-Flag antibody, the expression of GFP and GFP-N4TPR detected using an anti-GFP antibody, and the expression of the internal HDART detected using an anti-HDART antibody, respectively (FIG. 11A).

Skip [3] = molecular target: T1, Skip; assay: Yeast two-hybrid analysis (β-galactosidase) of HDART-Skip interaction; assay type: binding; design: expressed in transfected cells; host or cells: Saccharomyces cerevisiae Y190; details: Gal4DBD-HDART and deletion mutants with Gal4AD-Skip; β-galactosidase activity
Source text: In order to isolate a protein that binds to this HDART, a yeast two-hybrid system was used. More particularly, a yeast MATCHMAKER two-hybrid analysis kit (Clontech) was used for the isolation. The ORF full length of HDART was inserted so that it and the Gal4 DNA binding domain reading frame were aligned in the same frame with each other within pAS-1 vector (Clontech). This bait plasmid was transformed into Saccharomyces cerevisiae Y190 along with pACT2 prey plasmid whose HeLa cDNA (Clontech) had been sub-cloned. The screening for clones into which both plasmids were introduced was carried out according to the kit protocol. […]
For mapping of regions on the Skip taking part in the interaction with HDART, a series of deletion mutations where various regions on Skip (N-terminus region (codon 1-220), nuclear hormone binding region (NHR binding, codon 221-388), and tran-activation region (TA, codon 438-536) were deleted, and the interaction between HDART and mutated Skip was analyzed according to the yeast two-hybrid analysis using Gal4DBD-HDART as set forth in Example 2. The results of the analysis are shown in FIG. 5A. The sign “+” indicated at the right of FIG. 5A indicates the observation of the interaction by the filter lift analysis of β-galactosidase activity, and the number of “+” indicates the relative intensity of the interaction. […]

[4] = absence of a ligand, GFP-N4TPR expression vector 0.5 μg (highest expression level)
[5] = absence of ligand, GFP-N4TPR expression vector 0.3 μg

CCCC(=O)[O-].[Na+] [sodium butyrate]
expression repression by HDART (HDAC; 1 mA of sodium butyrate added with ligand (ATRA or dexamethasone)): The same results were also observed

CC1=C(/C=C/C(C)=C/C=C/C(C)=C/C(=O)O)C(C)(C)CCC1 [ATRA, all-trans retinoic acid, reference compound]
CAT activity (retinoic acid receptor; HepG2 cells receiving vacant vector (pcDNA), presence of ATRA 10^−8 M versus absence): increased five-fold | number of GFP positive cells (cytotoxic effect) (MM-1-19-P cells; cells treated with the vacant vector and ATRA 2 μM): less than 30% | morphological differentiation into muscle tissue (myotubular cytomegalic cells) (MM-1-19-P cells; vacant vector-introduced cells, ATRA 2 μM, 48 hours): differentiated into muscle tissue

CC(/C=C/C(=O)NO)=C\[C@@H](C)C(=O)c1ccc(N(C)C)cc1 [triconstatin A, tricostatin A]
expression repression by HDART (HDAC; 100 nM TSA added with ligand (ATRA or dexamethasone)): fully neutralized

B1: N4TPR: dominant negative peptide of HDART: four TPRs at the N terminus, amino acids 1 to 179 of SEQ ID NO: 2 (protein, listed as Homo sapiens)
chain: MVVMARLSRPERPDLVFEEEDLPYEEEIMRNQFSVKCWLRYIEFKQGAPKPRLNQLYERALKLLPCSYKLWYRYLKARRAQVKHRCVTDPAYEDVNNCHERAFVFMHKMPRLWLDYCQFLMDQGRVTHTRRTFDRALRALPITQHSRIWPLYLRFLRSHPLPETAVRGYRRFLKLSPES
transcription activation capability for the retinoic acid receptor compared with ATRA (retinoic acid receptor; N4TPR versus ATRA): higher transcription activation capability than ATRA | transcription activity from the RAR responsive promoter (retinoic acid receptor; [4]): about 20 times | transcription activity from the RAR responsive promoter (retinoic acid receptor; [5]): increased up to the amount (gray column) of transcription activity induced by the presence of ligand | transcription activity from the glucocorticoid responsive promoter [1, 4]: about 20 times | transcription activity from the glucocorticoid responsive promoter [1, 5]: increased up to the amount (gray column) of transcription activity induced by the presence of ligand | amount of HDART co-precipitated with Skip (Skip [2]): more reduced amount | interaction with Skip (Skip [3]): ensures the interaction with Skip to a full extent
